Results reported in US20220389089A1 (SURFACE ONCOLOGY, published 2022).

Molecular target: T1, IL-27RA on NCI-H2228 lung cancer cells (human, UniProt Q6UWB1 33-636)
T1 sequence: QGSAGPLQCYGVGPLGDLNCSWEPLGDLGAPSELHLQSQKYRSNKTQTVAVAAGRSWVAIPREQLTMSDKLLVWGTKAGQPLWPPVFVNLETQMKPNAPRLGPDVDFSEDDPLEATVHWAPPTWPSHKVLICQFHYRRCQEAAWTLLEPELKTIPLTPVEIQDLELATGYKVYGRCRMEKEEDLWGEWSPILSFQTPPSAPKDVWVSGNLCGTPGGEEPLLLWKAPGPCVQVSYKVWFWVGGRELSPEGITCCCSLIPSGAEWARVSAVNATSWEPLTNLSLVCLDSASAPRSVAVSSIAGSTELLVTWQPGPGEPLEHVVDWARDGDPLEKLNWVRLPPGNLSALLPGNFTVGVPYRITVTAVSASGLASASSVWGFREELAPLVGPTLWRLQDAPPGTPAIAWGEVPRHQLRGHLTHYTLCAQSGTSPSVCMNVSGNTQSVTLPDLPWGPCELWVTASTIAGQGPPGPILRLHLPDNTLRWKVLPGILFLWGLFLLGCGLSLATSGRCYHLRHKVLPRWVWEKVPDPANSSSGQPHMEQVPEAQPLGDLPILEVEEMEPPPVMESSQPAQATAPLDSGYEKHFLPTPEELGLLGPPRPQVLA
Assay: cell-based or functional assay

B1: recombinant human IL-27 (ligand)
chain 1: RKGPPAALTLPRVQCRASRYPIAVDCSWTLPPAPNSTSPVSFIATYRLGMAARGHSWPCLQQTPTSTSCTITDVQLFSMAPYVLNVTAVHPWGSSSSFVPFITEHIIKPDPPEGVRLSPLAERQLQVQWEPPGSWPFPEIFSLKYWIRYKRQGAARFHRVGPIEATSFILRAVRPRARYYVQVAAQDLTDYGELSDWSLPATATMSLGK
chain 2: FPRPPGRPQLSLQELRREFTVSLHLARKLLSEVRGQAHRFAESHLPGVNLYLLPLGEQLPDVSLTFQAWRRLSDPERLCFISTTLQPFHALLGGLGTQGRWTNMERMQLWAMRLDLRDLQRHLRFQVLAAGFNLPEEEEEEEEEEEEERKGLLPGALGSALQGPAQVSWPQLLSTYRLLHSLELVLSRAVRELLLLSKAGHSVWPLGFPTLSPQP
EC50 of STAT1 phosphorylation (pSTAT1-PE GeoMean, flow cytometry) in NCI-H2228 lung cancer cells cultured with graded concentrations of IL-27: 5.3 ng/mL
